Drawing on patent publication US20250271431A1, this text covers average signal intensity (mean pixel value) for 1 molecule.

Test in all cases: RepliTope peptide microarray, Cy5 fluorescence
Assay [1] deals with epitope sequence SEQ ID No 15 (…) (SARS-CoV-2).
The target in assay [2] is epitope sequence SEQ ID No 37 (…) (SARS-CoV-2).
The target of assay [3] is epitope sequence SEQ ID No 19 (…) (SARS-CoV-2).
The target in assay [4] is epitope sequence SEQ ID No 18 (…) (SARS-CoV-2).
For assay [5], the target named is epitope sequence SEQ ID No 35 (…) (SARS-CoV-2).
For assay [6], the target named is epitope sequence SEQ ID No 17 (…) (SARS-CoV-2).

B1: hcAb B10 (clone B10), camelid full length IgG2 heavy chain only antibody (antibody)
heavy: DVQLQESGGGLVQPGGSLRLSCAASGDINTIGTMNWFRQAPGKGREFVALITSGGTTNYADSVKGRFTVSRDNAKNTVYLQMNSLKPEDTAVYHCYGADHYSDYWGQGTQVTVSSEPKTPKPQPQPQPQPNPTTESKCPKCPAPELLGGPSVFIFPPKPKDVLSISGRPEVTCVVVDVGQEDPEVSFNWYIDGAEVRTANTRPKEEQFNSTYRVVSVLPIQHQDWLTGKEFKCKVNNKALPAPIEKTISKAKGQTREPQVYALAPHREELAKDTVSVTCLVKGFYPPDINVEWQRNRQPEPEGTYATTPPQLDNDGTYFLYSKLSVGKNTWQRGETFTCVVMHETLHNHYTQKSISQS
Take B1: the average signal intensity (mean pixel value) turned out to be 23000 in assay [1]; 13900 in assay [2]; 2400 in assay [3]; 32800 in assay [4]; 10500 in assay [5]; 45000 in assay [6].
